# Values quoted from earlier work as cited in paper PMC4370575.
# Legend:
# Mms2 (Homo sapiens) = Mms2 (Homo sapiens) (UniProt Q15819)
# UbcH5c~Ub (Homo sapiens) = UbcH5c~Ub (Homo sapiens) (UniProt P61077)
# Sequence of UniProt Q15819 (Q15819 2-145): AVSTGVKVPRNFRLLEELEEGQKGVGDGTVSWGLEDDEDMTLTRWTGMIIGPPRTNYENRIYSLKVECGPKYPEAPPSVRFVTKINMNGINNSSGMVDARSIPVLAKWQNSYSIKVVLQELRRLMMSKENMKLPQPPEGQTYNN
Substance,Kd (Mms2 (Homo sapiens)) [µM],Kd (UbcH5c~Ub (Homo sapiens)) [µM]
Ubc13 (from UniProt P61088),2,
UbcH5c~Ub (from UniProt P61077),,25
